Values joined by “and” are separate entries in the source; they are usually repeats but may differ in a detail not shown here. Identical values can stand only once. Each block holds one molecule with its values, some of them ahead of it.
How the values were obtained:
[1] = molecular target: NKp30_Stalk, uniform simple N-glycans (expressed in HEK293S GnTI^−) (human) (UniProt O14931); assay: SPR; NKp30_Stalk monomer; conditions: domain or fragment
[2] = molecular target: NKp30_Stalk, wild-type N-glycosylation (expressed in HEK293T) (human) (UniProt O14931); assay: SPR; NKp30_Stalk monomer; conditions: domain or fragment
[3] = molecular target: NKp30_Stalk, deglycosylated with endoglycosidase Endo F1 (human) (UniProt O14931); assay: SPR; conditions: domain or fragment
[4] = molecular target: NKp30_Stalk, uniform simple N-glycans (expressed in HEK293S GnTI^−) (human) (UniProt O14931); assay: SPR; NKp30_Stalk monomer; conditions: domain or fragment; remark: listed apart in the source
[5] = molecular target: NKp30_Stalk, wild-type N-glycosylation (expressed in HEK293T) (human) (UniProt O14931); assay: SPR; NKp30_Stalk oligomer; conditions: domain or fragment
[6] = molecular target: NKp30_Stalk, uniform simple N-glycans (expressed in HEK293S GnTI^−) (human) (UniProt O14931); assay: SPR; NKp30_Stalk oligomer; conditions: domain or fragment
B7-H6 (Homo sapiens) = B7-H6 (Homo sapiens) (UniProt Q68D85); conditions: cited from earlier work
[7] = molecular target: NKp30_LBD (Ligand Binding Domain), glycosylation state not told in the text for the experiment (human) (UniProt O14931); assay: AUC; NKp30_LBD at high concentration, 20 mg/mL, 50,000 rpm, 3 mm centerpiece, interference optics, nonideal c(s) model
[8] = molecular target: B7-H6 C212S extracellular portion, uniform simple N-glycans (expressed in HEK293S GnTI^−) (UniProt Q68D85); assay: SPR; conditions: domain or fragment
[9] = molecular target: B7-H6 C212S extracellular portion, glycosylation state not told in the text for the experiment (UniProt Q68D85); assay: SPR; as a7 but analyte is the oligomeric fraction of NKp30_Stalk; increase in affinity put down to the avidity of the oligomers
[10] = molecular target: B7-H6 C212S extracellular portion, glycosylation state not told in the text for the experiment (UniProt Q68D85); assay: SPR; Biacore T200; biotinylated B7-H6 on streptavidin sensor; analyte NKp30_LBD, deglycosylated NKp30_Stalk or the monomeric fraction of NKp30_Stalk, 1 nM to 16.3 μM, single cycle kinetics; 10 mM HEPES pH 7.5, 150 mM NaCl, 1 mg/mL dextran, 0.05% Tween-20; steady-state responses fitted with AB hetero-association model
[11] = molecular target: B7-H6 C212S extracellular portion, wild-type N-glycosylation (expressed in HEK293T) (UniProt Q68D85); assay: ITC; NKp30_Stalk monomer; conditions: domain or fragment
[12] = molecular target: B7-H6 C212S extracellular portion, wild-type N-glycosylation (expressed in HEK293T) (UniProt Q68D85); assay: ITC; NKp30_Stalk oligomer; conditions: domain or fragment
[13] = molecular target: B7-H6 C212S extracellular portion, wild-type N-glycosylation (expressed in HEK293T) (UniProt Q68D85); assay: ITC; NKp30_Stalk monomer; conditions: domain or fragment; remark: listed apart in the source
[14] = molecular target: B7-H6 C212S extracellular portion, uniform simple N-glycans (expressed in HEK293S GnTI^−) (UniProt Q68D85); assay: SPR; NKp30_Stalk monomer; conditions: domain or fragment
[15] = molecular target: B7-H6 C212S extracellular portion, uniform simple N-glycans (expressed in HEK293S GnTI^−) (UniProt Q68D85); assay: SPR; NKp30_Stalk oligomer; conditions: domain or fragment
[16] = molecular target: NKp30_Stalk, wild-type N-glycosylation (expressed in HEK293T) (human) (UniProt O14931); assay: AUC; sedimentation velocity of glycosylated and deglycosylated NKp30_Stalk oligomers, 20 μM, 20 °C, 10 mM HEPES pH 7.5, 150 mM NaCl, 10 mM NaN3, 36,000 or 48,000 rpm
[17] = sedimentation velocity AUC; conditions: glycan changed form; control: NKp30_Stalk from HEK293S GnTI− (uniform glycans)
[18] = solubility during deglycosylation in HEPES buffer; conditions: glycan lost; control: glycosylated B7-H6 (HEK293S GnTI−)
[19] = molecular target: NKp30_Stalk, wild-type N-glycosylation (expressed in HEK293T) (human) (UniProt O14931); assay: ITC; as a9 but the oligomeric fraction of NKp30_Stalk in the cell
[20] = molecular target: NKp30_Stalk, glycosylated, type of N-glycans not told in the text for the experiment (human) (UniProt O14931); assay: AUC; sedimentation velocity of the monomeric fraction of glycosylated NKp30_Stalk, of B7-H6 and of their equimolar mixture, 20 μM, 20 °C, HEPES buffer
[21] = molecular target: NKp30_Stalk, wild-type N-glycosylation (expressed in HEK293T) (human) (UniProt O14931); assay: AUC; sedimentation velocity of the oligomeric fraction of NKp30_Stalk (HEK293T) with ATTO488-labelled B7-H6, read at 280 nm (total) and 480 nm (B7-H6 only), 20 °C
[22] = molecular target: T1, B7-H6 C212S extracellular portion, uniform simple N-glycans (expressed in HEK293S GnTI^−) (UniProt Q68D85 25-245, C212S, uniform Asn-GlcNAc2Man5 N-glycans; biotinylated with EZ-Link NHS-Biotin for SPR; labelled with ATTO 488-NHS ester for the two-wavelength sedimentation analysis); assay: SPR
T1 sequence: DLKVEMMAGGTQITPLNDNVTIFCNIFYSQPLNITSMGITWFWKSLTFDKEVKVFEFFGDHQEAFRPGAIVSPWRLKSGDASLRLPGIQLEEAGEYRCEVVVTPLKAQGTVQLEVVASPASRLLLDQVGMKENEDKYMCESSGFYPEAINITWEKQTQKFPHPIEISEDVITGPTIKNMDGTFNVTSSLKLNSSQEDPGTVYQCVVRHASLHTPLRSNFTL

[23] = molecular target: T2, B7-H6 C212S extracellular portion, wild-type N-glycosylation (expressed in HEK293T) (UniProt Q68D85 25-245, C212S, complex wild-type N-glycans (HEK293T); biotinylated with EZ-Link NHS-Biotin for SPR); assay: ITC
T2 sequence: T1 sequence

Molecule: B7-H6 C212S extracellular portion, uniform simple N-glycans (expressed in HEK293S GnTI^−) (from UniProt Q68D85 25-245)
- Kd [2]: 380 nM
- Kd [1]: 350 nM
- Kd [3]: 350 nM
- Kd [4]: 370 nM
- Kd [5]: 90 nM
- Kd [6]: 70 nM

Molecule: NKp30 (from UniProt O14931)
- Kd (B7-H6 (Homo sapiens)): 1000 nM

Molecule: NKp30_Stalk, glycosylated, type of N-glycans not told in the text for the experiment (from UniProt O14931 19-135) (domain or fragment)
- fold stronger binding than NKp30 LBD [9]: 10 fold
- fold stronger binding than the NKp30 Stalk monomeric fraction [9]: 4 fold
- fold higher affinity than NKp30 LBD [10]: 2 fold

Molecule: NKp30_Stalk, uniform simple N-glycans (expressed in HEK293S GnTI^−) (from UniProt O14931 19-135)
- Kd [11]: 970 nM
- Kd [12]: 1000 nM
- Kd [13]: 960 nM
- Kd [14]: 370 nM
- Kd [15]: 70 nM

Molecule: NKp30_Stalk, wild-type N-glycosylation (expressed in HEK293T) (from UniProt O14931 19-135)
- Kd [11]: 590 nM
- Kd [12]: 830 nM
- Kd [14]: 380 nM
- Kd [15]: 90 nM

Molecule: NKp30_Stalk, wild-type N-glycosylation (expressed in HEK293T) (from UniProt O14931 19-135) (domain or fragment)
- stoichiometry N [16]: 8 units and 16 units

B1: NKp30: HEK293T wild-type glycosylation (protein)
parent chain: MAWMLLLILIMVHPGSCALWVSQPPEIRTLEGSSAFLPCSFNASQGRLAIGSVTWFRDEVVPGKEVRNGTPEFRGRLAPLASSRFLHDHQAELHIRDVRGHDASIYVCRVEVLGLGVGTGNGTRLVVEKEHPQLGAGTVLLLRAGFYAVSFLSVAVGSTVYYQGKCLTWKGPRRQLPAVVPAPLPPPCGSSAHLLPPVPGG
- oligomerisation [17]: changes, one dominant species of ca 8 units and with secondary species of ca 16 units

B2: B7-H6: Endo F1 (protein)
parent chain: MTWRAAASTCAALLILLWALTTEGDLKVEMMAGGTQITPLNDNVTIFCNIFYSQPLNITSMGITWFWKSLTFDKEVKVFEFFGDHQEAFRPGAIVSPWRLKSGDASLRLPGIQLEEAGEYRCEVVVTPLKAQGTVQLEVVASPASRLLLDQVGMKENEDKYMCESSGFYPEAINITWEKQTQKFPHPIEISEDVITGPTIKNMDGTFNVTSCLKLNSSQEDPGTVYQCVVRHASLHTPLRSNFTLTAARHSLSETEKTDNFSIHWWPISFIGVGLVLLIVLIPWKKICNKSSSAYTPLKCILKHWNSFDTQTLKKEHLIFFCTRAWPSYQLQDGEAWPPEGSVNINTIQQLDVFCRQEGKWSEVPYVQAFFALRDNPDLCQCCRIDPALLTVTSGKSIDDNSTKSEKQTPREHSDAVPDAPILPVSPIWEPPPATTSTTPVLSSQPPTLLLPLQ
- stability_or_folding [18]: decreases

B3: B7-H6 C212S extracellular portion, glycosylation state not told in the text for the experiment (domain or fragment)
chain: T1 sequence
modifications: glycosylation state marked only in the figures; biotinylated with EZ-Link NHS-Biotin for SPR
- percent of NKp30 Stalk T oligomers accessible [19]: 60 to 70%
- stoichiometry N [20]: 1

B6: NKp30_LBD (Ligand Binding Domain), wild-type N-glycosylation (expressed in HEK293T) (domain or fragment)
chain: LWVSQPPEIRTLEGSSAFLPCSFNASQGRLAIGSVTWFRDEVVPGKEVRNGTPEFRGRLAPLASSRFLHDHQAELHIRDVRGHDASIYVCRVEVLGLGVGTGNGTRLVVEKE
modifications: complex wild-type N-glycans (HEK293T)
- Kd [22]: 910 nM
- Kd [23]: 770 nM

B7: NKp30_LBD (Ligand Binding Domain), deglycosylated with endoglycosidase Endo F1 (domain or fragment)
chain: B6 chain
modifications: a single GlcNAc unit left at each N-glycosylation site after Endo F1
- Kd [22]: 690 nM
- Kd [23]: 550 nM

The remaining lines, values ahead:

- Kd [1]: 380 nM
Molecule: B7-H6 C212S extracellular portion, deglycosylated with endoglycosidase Endo F1 (from UniProt Q68D85 25-245)

- Kd [1]: 370 nM
Molecule: B7-H6 C212S extracellular portion, wild-type N-glycosylation (expressed in HEK293T) (from UniProt Q68D85 25-245)

- stoichiometry N [7]: 2
Molecule: NKp30_LBD (Ligand Binding Domain), glycosylation state not told in the text for the experiment (from UniProt O14931 19-130) (domain or fragment)

- Kd [8]: 350 nM
Molecule: NKp30_Stalk, deglycosylated with endoglycosidase Endo F1 (from UniProt O14931 19-135)

- percent of NKp30 binding sites occupied by B7-H6 in the oligomers [21]: 60%
- stoichiometry N ([21]; scale: B7-H6 molecules per eight NKp30 molecules): 5
B4: B7-H6 C212S extracellular portion, uniform simple N-glycans (expressed in HEK293S GnTI^−) (domain or fragment)
chain: T1 sequence
modifications: uniform Asn-GlcNAc2Man5 N-glycans; biotinylated with EZ-Link NHS-Biotin for SPR; labelled with ATTO 488-NHS ester for the two-wavelength sedimentation analysis

- Kd [22]: 1010 nM
- Kd [23]: 890 nM
B5: NKp30_LBD (Ligand Binding Domain), uniform simple N-glycans (expressed in HEK293S GnTI^−) (domain or fragment)
chain: B6 chain
modifications: uniform Asn-GlcNAc2Man5 N-glycans; GlcNAc modelled at Asn42 in the crystal structure

Source: PMC7409301, “Natural Killer Cell Activation Receptor NKp30 Oligomerization Depends on Its N-Glycosylation” (Cancers, 2020)
